Biological target: T1, His-KHCstalk (human uKHC amino acid residues 555-772, tagged at the N-terminus with an oligohistidine … (human, UniProt P33176 555-772))
T1 construct: range 555-772; also the antigen used to raise the chicken anti-uKHC; also called HisKHC555-772; His-KHC fragment; not shown: N-terminal oligohistidine (His) tag
T1 sequence (looked up): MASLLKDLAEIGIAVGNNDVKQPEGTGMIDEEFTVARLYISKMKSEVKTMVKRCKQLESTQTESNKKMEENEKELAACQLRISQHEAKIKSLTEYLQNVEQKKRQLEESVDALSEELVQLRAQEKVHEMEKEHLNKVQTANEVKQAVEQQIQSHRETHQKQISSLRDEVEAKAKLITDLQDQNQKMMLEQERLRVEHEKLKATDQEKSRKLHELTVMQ
Test: pull-down on nickel-activated beads, immunoblot

B1: untagged US11 (recombinant HSV1 US11 with five additional amino acids MGRLE at the N-terminus, expressed in Escherichia coli) (other)
chain: MGRLEMSQTQPPAPVGPGDPDVYLKGVPSAGMHPRGVHAPRGHPRMISGPPQRGDNDQAAGQCGDSGLLRVGADTTISKPSEAVRPPTIPRTPRVPREPRVPRPPREPREPRVPRAPRDPRVPRDPRDPRQPRSPREPRSPREPRSPREPRTPRTPREPRTARGSV
notes: also called untagged US11 construct
binding result: no binding

Source: patent publication US6953661 (WESTMEAD HOSPITAL, dated 2005)
